Measured values: US20240082302A1 (University of Pennsylvania, published 2024)

T1: human TIM-3 expressed on cells (NB4-TIM3 cells; human AML leukemic stem cells) (human, UniProt Q8TDQ0 22-301)
T1 construct: whole, on cells; also called NB4-expressing human TIM-3
T1 sequence (looked up): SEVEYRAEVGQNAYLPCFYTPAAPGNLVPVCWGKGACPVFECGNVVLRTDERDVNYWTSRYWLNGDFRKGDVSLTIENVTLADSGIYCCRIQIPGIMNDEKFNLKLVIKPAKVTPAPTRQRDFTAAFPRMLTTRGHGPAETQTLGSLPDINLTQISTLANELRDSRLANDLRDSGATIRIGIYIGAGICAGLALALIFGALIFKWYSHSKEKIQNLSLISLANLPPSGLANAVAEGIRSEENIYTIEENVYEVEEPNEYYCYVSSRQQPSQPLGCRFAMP


Target: T1, human TIM-3 expressed on cells …
Assay: phage display panning/screening on TIM-3 expressing NB4 cells
From the text: To generate VHHs targeting human TIM-3, human recombinant extracellular TIM-3 purified from HEK293 cells was used to immunize llamas, and the resulting VHH phage display libraries were constructed. The phage VHH clones targeting TIM-3 were screened by panning through TIM-3 expressing NB4 cells. The positive clones specifically binding to TIM-3 expressing NB4 cells were isolated. DNA encoding each of the VHHs, including VHH30, 32, and 33, were sequenced. The sequences were consistent with the predicted sequences for VHHs. Each of the VHHs, with both nucleotide and amino acid sequences, are listed below.

Row | Binder | binding result
1 | Anti-TIM3 VHH38 (VHH, Llama VHH isolated as a phage display clone (pCOMB3X)) VHH: QVQLQESGGGLVQAGDSLRLSCAVGRTFSASTLGWFRQSPGKEREFVAAISWWRGEAYYGDSVKGRFTISRDNTKTTINLQMNSLKPEDTAVYYCARAQFDGATRADDYDNWGQGTQVTVSS | binds
2 | Anti-TIM3 VHH13 (VHH, Llama VHH isolated as a phage display clone (pCOMB3X)) VHH: QVQLQESGGGLVQAGGSLSLSCAASGRTFKNYLMAWFRQTPGKEREFVAAITQLGTRSLNEDFVKGRFTISRDNAKNTVYLQMNDLKTDDTGVYSCAASLQSGGSLRYAKYDYWGQGTQVTVSS | binds
3 | Anti-TIM3 VHH12 (VHH, Llama VHH isolated as a phage display clone (pCOMB3X)) VHH: QVQLQESGGGLVQTGDSLRLSCVVSGGTFRNYVMGWFRQAPGKEREFVSAMNWSGGITVYADSVKGRFTISRDNAKNAVYLQMGSLKPGDTAVYYCAAAAIDGGTVRSINSYAYWGQGTQVTVSS | binds

Target: T1, human TIM-3 expressed on cells …
Assay: flow cytometry, VHH phage clones on NB4 cells expressing human TIM-3

Row | Binder | binding result
4 | Anti-TIM3 VHH33 (VHH, Llama VHH tested as a phage clone (pCOMB3X phage display) by flow cytometry on cells) VHH: QVQLQESGGGLVQPGGSLRLSCAVSGLTPDAYVMGWFRQAPGKEREGVSCISPSGGTTSYPDSVKGRFTISRDNAKNTVYLQMNSLKPEDTGVYYCAAVAGRWCDYGMNYYGKGTQVTVSS | binds
5 | Anti-TIM3 VHH32 (VHH, Llama VHH tested as a phage clone (pCOMB3X phage display) by flow cytometry on cells) VHH: QVQLQESGGGLVQAGGSLNLSCAASGSSFRLYTVGWHRQAPGKQRELVAWISGAGSTNYHSSVKGRFTISRDNAKNTALLQMNNLAPEDTAVYYCNLLNYWGQGTQVTVSS | binds
6 | Anti-TIM3 VHH30 (VHH, Llama VHH tested as a phage clone (pCOMB3X phage display) by flow cytometry on cells) VHH: QVQLQESGGGLVQAGGSLRLSCAASGFTFGSYVMGWFRQAPGKEREFVASISTSGGITSYADSVKGRFTVSRDNAKNTVYLQMNSLKPEDTAVYYCARDLTYYRTGGRLPDNANGYAYWGQGTQVTVSS | binds
